Experimental data: PMC8115599, “Mechanism of MRX inhibition by Rif2 at telomeres” (Nature Communications, 2021)

Target: T1, GST-Rif2_(1-60) (S. cerevisiae, UniProt Q06208 1-60)
T1 construct: Rif2, S. cerevisiae, residues 1-60; also called GST-ScRif2_(1-60); Rif2 BAT; source: E. coli BL21 (DE3), purified (GSH Sepharose, Hitrap Heparine)
T1 sequence (looked up): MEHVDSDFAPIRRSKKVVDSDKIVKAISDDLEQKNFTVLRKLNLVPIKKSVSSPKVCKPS
Assay: pull-down; GST-Rif2_(1-60), its F8A mutant or GST (10 µg) immobilised on Glutathione Sepharose 4B; Rad50∆CC (30 µg) added in 100 µL 50 mM Tris HCl pH 8, 150 mM NaCl, 1 mM DTT, 0.5 mM EDTA, 10% glycerol, 2 mM MgCl2, benzonase; 120 min at 4 °C; glutathione elution, SDS-PAGE, silver staining
Conditions: both partners purified

- binding result: binds
B1: Rad50∆CC, purified (His-SUMO tag removed) (domain or fragment, S. cerevisiae)
chain: MSAIYKLSIQGIRSFDSNDRETIEFGKPLTLIVGMNGSGKTTIIECLKYATTGDLPPNSKGGVFIHDPKITGEKDIRAQVKLAFTSANGLNMIVTRNIQLLMKKTTTTFKTLEGQLVAINNSGDRSTLSTRSLELDAQVPLYLGVPKAILEYVIFCHQEDSLWPLSEPSNLKKKFDEIFQAMKFTKALDKILCYDDIDVYSKALDSAIMKYHGLKMQDINRIIDELWKRTYSGTDIDTIKIRSDEVSSTVKGKSYNYRVVMYKQDVELDMRGRCSAGQKVLASIIIRLALSETFGANCGVIALDEPTTNLDEENIESLAKSLHNIINMRRHQKNFQLIVITHDEKFLGHMNAAAFTDHFFKVKRDDRQKSQIEWVDINRVTY
notes: Rad50, S. cerevisiae, N-terminal Head domain, residues 1-189; residues joining the two Head domains in the Rad50∆CC allele; Rad50, S. cerevisiae, C-terminal Head domain, residues 1125-1312; also called Rad50 ATPase Head; Rad50 Head domains; source: E. coli BL21 (DE3), purified (NiNTA, PD10; tag cleaved with His-SUMO-Protease); not shown: His6-SUMO, N-terminal, cleaved
